Experimental data from US20210238282A1 (AMPSOURCE BIOPHARMA SHANGHAI, published 2021).

What was measured:
[1] = target: T1, TIM3-Euk (TIM-3 reagent of the TIM-3/Gal9 binding assay kit) (UniProt Q8TDQ0 22-200, limits assumed, europium cryptate label (Euk), position not stated); assay: HTRF competition, blocking of TIM-3/Galectin-9 binding (competitor: Tag-Gal9)
T1 construct: Kit reagent

[2] = target: monkey TIM-3 (Sino Biological Inc., catalog No. 90312-C02H) (monkey); assay: direct ELISA with HRP-labeled AB12S3, plate coated with monkey TIM-3 at 1 ug/mL
[3] = target: T2, human TIM-3 antigen (His-tagged TIM-3 extracellular domain expressed by Ampsource Biopharma Shanghai Inc.) (human, UniProt Q8TDQ0 22-202); assay: ELISA, plate coated with His-tagged human TIM-3 extracellular domain
T2 construct: extracellular domain; also called TIM-3-His; not shown: His tag

[4] = target: T2, human TIM-3 antigen (His-tagged TIM-3 …); assay: direct ELISA with HRP-labeled AB12S3, plate coated with human TIM-3 at 1 ug/mL
[5] = target: T3, mouse TIM-3 protein (Sino Biological Inc., catalog No. 51152-M08H) (mouse, UniProt Q8VIM0 20-191); assay: direct ELISA with HRP-labeled AB12S3, plate coated with mouse TIM-3 at 1 ug/mL
T3 construct: Bought protein; also called murine TIM-3

[6] = target: T2, human TIM-3 antigen (His-tagged TIM-3 …); assay: BLI (ForteBio Octet) as stated; antibody captured by anti-human IgG Fc, antigen in solution, 1:1 model
[7] = target: T4, human TIM-1 (Sino Biological Inc., catalog No. 11051-H08H1) (human, UniProt Q96D42 21-290); assay: ELISA, plate coated with human TIM-1 at 1 ug/mL, detection with HRP-labeled goat anti-human IgG
T4 construct: Bought protein
T4 sequence (looked up): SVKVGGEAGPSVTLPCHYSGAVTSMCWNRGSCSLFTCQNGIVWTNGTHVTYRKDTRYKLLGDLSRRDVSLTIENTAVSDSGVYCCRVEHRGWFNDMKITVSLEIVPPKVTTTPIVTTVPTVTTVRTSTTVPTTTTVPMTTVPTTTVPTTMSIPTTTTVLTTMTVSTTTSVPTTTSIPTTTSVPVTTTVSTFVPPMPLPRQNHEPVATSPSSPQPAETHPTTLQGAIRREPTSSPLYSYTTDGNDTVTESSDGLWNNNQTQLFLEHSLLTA

[8] = target: T5, human TIM-4 (Sino Biological Inc., catalog No. 12161-H08H) (human, UniProt Q96H15 25-315); assay: ELISA, plate coated with human TIM-4 at 1 ug/mL, detection with HRP-labeled goat anti-human IgG
T5 construct: Bought protein
T5 sequence (looked up): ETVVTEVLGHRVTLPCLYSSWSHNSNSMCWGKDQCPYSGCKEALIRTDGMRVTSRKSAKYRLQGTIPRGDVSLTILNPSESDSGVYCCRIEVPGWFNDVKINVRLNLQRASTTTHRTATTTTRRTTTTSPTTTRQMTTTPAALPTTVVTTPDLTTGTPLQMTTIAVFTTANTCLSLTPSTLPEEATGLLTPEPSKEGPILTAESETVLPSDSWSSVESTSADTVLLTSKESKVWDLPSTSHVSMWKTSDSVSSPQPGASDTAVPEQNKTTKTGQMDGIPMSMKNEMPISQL

[9] = target: TIM-3 (His-tagged, used in the TIM-3/PtdSer competitive ELISA) (UniProt Q8TDQ0 22-200, limits assumed); assay: competitive ELISA, plate coated with PtdSer (phosphatidylserine, not a protein), His-tagged TIM-3 in solution with antibody, anti-6xHis-HRP
[10] = target: T2, human TIM-3 antigen (His-tagged TIM-3 …); assay: ELISA, plate coated with His-tagged human TIM-3 ECD, goat anti-mouse IgG-HRP
[11] = target: T2, human TIM-3 antigen (His-tagged TIM-3 …); assay: BLI (ForteBio Octet) as stated; antigen in solution, 1:1 model; capture of the murine antibody not described

| Binder | EC50 (read off the curve) [3] | Kd [6] | koff [6] | kon [6] | further results |
| --- | --- | --- | --- | --- | --- |
| humanized anti-TIM-3 antibody AB12S3 (antibody, human IgG4 S228P, kappa, V domains shown, Human IgG4 S228P (EU) heavy chain and human kappa light chain) VH: EVQLVQSGAEVKKPGASVKVSCKASGYTFTNYVMHWMRQAPGQRLEWIGYIDPDNDGIKYNEKIKGKATLTSDKSSSTAYMELSSLRSEDTAVYYCARDFGYVDWFPYWGQGTTVTVSS VL: DIVMTQSPSSLSASVGDRVTITCKASQDVTTAVAWYQQKPGKAPKLLIYSASNRYIGVPDRFTGSGSGTDFTFTISSLQPEDIATYYCQQHYSIPPTFGGGTKVEIKR | ~0.004 µg/mL | 2.71 pM |  |  | IC50 [1]: 0.202 µg/mL; EC50 (read off the curve) [2]: 0.05 µg/mL; EC50 (read off the curve) [4]: ~0.008 µg/mL; binding result [5]: no binding (tested: 10000 ng/mL); binding result [7]: no binding (tested: 10000 ng/mL); binding result [8]: no binding (tested: 10000 ng/mL); IC50 [9]: 1.33 µg/mL |
| humanized anti-TIM-3 antibody AB12S4 (antibody, human IgG4 S228P, kappa, V domains shown, Human IgG4 S228P (EU) heavy chain and human kappa light chain) VH: EVQLVLSGAEVVKPGASVKMSCKASGYTFTNYVMHWMRQKPGQRLEWIGYIDPDNDGIKYNEKIKGKATLTSDKSSSTAYMELSSLRSEDSAVYYCARDFGYVDWFPYWGQGTTVTVSS VL: DIVMTQSPSSMSTSVGDRVTITCKASQDVTTAVAWYQQKPGKSPKLLIYSASNRYIGVPDRFTGSGSGTDFTFTISSVQPEDIAVYYCQQHYSIPPTFGGGTNLEIKR | ~0.004 µg/mL | < 1 pM | < 1e-07 s⁻¹ | 254000 M⁻¹ s⁻¹ |  |
| control antibody AB12S1 (antibody, human IgG1, kappa, N297A, V domains shown, Variable regions derived from anti-TIM-3 antibody ABTIM3 of U.S. Pat. No. 9,605,070; also called positive control antibody AB12S1) VH: QVQLQQPGAELVKPGASVKMSCKASGYTFTSYNMHWIKQTPGQGLEWIGDIYPGNGDTSYNQKFKGKATLTADKSSSTVYMQLSSLTSEDSAVYYCARVGGAFPMDYWGQGTSVTVSS VL: DIVLTQSPASLAVSLGQRATISCRASESVEYYGTSLMQWYQQKPGQPPKLLIYAASNVESGVPARFSGSGSGTDFSLNIHPVEEDDIAIYFCQQSRKDPSTFGGGTKLEIKR | ~0.003 µg/mL |  |  |  | IC50 [1]: 0.259 µg/mL; IC50 [9]: 3.2 µg/mL |
| murine monoclonal antibody Mab22 (antibody, mouse IgG1, V domains shown, subtype identified as murine IgG1 (Kappa); purified from hybridoma supernatant on protein G; also called antibody secreted by hybridoma clone #22; murine antibody Mab22) VH: EVQLQLSGPELVKPGASVKMSCKASGYTFTNYVMHWMRQKPGQGLEWIGYIDPDNDGIKYNEKIKGKATLTSDKSSSTAYMELSSLTSEDSAVYYCARDFGYVDWFPYWGQGTLVTVSA VL: DIVMTQSHKFMSTSVGNRVSITCKASQDVTTAVAWYQQKSGQSPKLLIYSASNRYIGVPDRFTGSGSGTDFTFTISSVQTEDLAVYYCQQHYSIPPTFGGGTNLEIK |  |  |  |  | EC50 [10]: 0.0063 µg/mL; Kd [11]: < 1 pM; koff [11]: < 1e-07 s⁻¹; kon [11]: 345000 M⁻¹ s⁻¹ |
| humanized anti-TIM-3 antibody AB12S6 (antibody, V domains shown) VH: QVQLQLSGAEVKKPGASVKVSCKASGYTFTNYVMHWVRQAPGQRLEWMGWIDPDNDGIKYSQKFQGRVTLTSDKSASTAYMELSSLRSEDTAVYYCARDFGYVDWFPYWGQGTLVTVSS VL: DIQMTQSPSSMSASVGDRVTITCQASQDVTTALNWYQQKPGKSPKLLIYSASNLETGVPSRFSGSGSGTDFTFTISSLQPEDIATYYCQQHYSIPPTFGGGTNLEIK |  | 4.38 pM | 8.68e-07 s⁻¹ | 198000 M⁻¹ s⁻¹ |  |
| humanized anti-TIM-3 antibody AB12S5 (antibody, V domains shown, it was captured through anti-human IgG Fc) VH: QVQLVQSGAEVKKPGASVKVSCKASGYTFTNYVMHWVRQAPGQRLEWMGWIDPDNDGIKYSQKFQGRVTITRDTSASTAYMELSSLRSEDTAVYYCARDFGYVDWFPYWGQGTTVTVSS VL: DIQMTQSPSSLSASVGDRVTITCQASQDVTTALNWYQQKPGKAPKLLIYSASNLETGVPSRFSGSGSGTDFTFTISSLQPEDIATYYCQQHYSIPPTFGGGTKVEIK |  | 4.82 pM | 6.32e-07 s⁻¹ | 131000 M⁻¹ s⁻¹ |  |
| humanized anti-TIM-3 antibody AB12S7 (antibody, V domains shown) VH: EVQLQLSGAEVKKPGASVKVSCKASGYTFTNYVMHWMRQKPGQRLEWMGWIDPDNDGIKYSQKFQGRVTITRDKSSSTAYMELSSLRSEDTAVYYCARDFGYVDWFPYWGQGTLVTVSS VL: DIVMTQSPSSLSASVGDRVTITCQASQDVTTALNWYQQKSGQSPKLLIYSASNLETGVPSRFSGSGSGTDFTFTISSLQPEDIATYYCQQHYSIPPTFGGGTNLEIK |  | 3.44 pM | 7.66e-07 s⁻¹ | 223000 M⁻¹ s⁻¹ |  |
